Experimental data: patent US20250179187A1 (REJUVERON SENESCENCE THERAPEUTICS, published 2025)
Substitutions are numbered along the chain they refer to. Like-named read-outs stand apart in the source and are kept apart here.

Experiments:
[1] = target: T1, human PD-L2 on CHO-K1 cells over-expressing hPDL2-GFP (human, UniProt Q9BQ51 20-273); test: flow cytometry on CHO-K1 cells expressing hPD-L2, median fluorescence
T1 construct: whole, on cells; also called cellular hPD-L2; cellular PDL2; not shown: GFP of the hPDL2-GFP construct
T1 sequence (looked up): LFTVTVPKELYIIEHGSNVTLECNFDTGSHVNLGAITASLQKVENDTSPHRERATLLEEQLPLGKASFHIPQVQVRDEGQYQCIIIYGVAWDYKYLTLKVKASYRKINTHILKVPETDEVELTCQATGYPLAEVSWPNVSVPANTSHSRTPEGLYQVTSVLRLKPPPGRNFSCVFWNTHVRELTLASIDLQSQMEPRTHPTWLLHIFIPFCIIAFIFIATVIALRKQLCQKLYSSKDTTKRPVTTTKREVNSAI
Description: (§1) CHO-K1 cells over-expressing either hPDL2-GFP or mPD-L2 GFP were detached, washed in phosphate buffered saline (PBS) and adjusted to a cell concentration of around 1 million cells in cytometry buffer (CB, PBS containing 1% […]). Around 80,000 cells were then distributed into a round-bottom 96 well plate and the plate was centrifuged for 3 minutes at 400 g at 4° C. and supernatant discarded. Appropriate antibody concentrations in 50 microliter volumes were added to the wells and incubated for 30 minutes at 6-8° C. The plate was washed 3 times with PBS and relevant secondary antibodies (either AlexaFluor 647 Goat anti-Mouse IgG (H+L) (Invitrogen A21235/lot 1915807) or AlexaFluor 647 Goat anti-Rat IgG (H+L) (Invitrogen A21247/lot 1921562) were added for 30 minutes at 4° C. Cells were again washed with PBS two times, resuspended in CB and analyzed in either the Sony ID7000 Spectral Cell analyzer (Sony) or the GALLIOS Flow Cytometer (Beckman-Coulter) was used. EC₅₀ was calculated using the Sigmoidal 4PL equation of the GraphPad Prism-9 software.

[2] = target: T1, human PD-L2 on CHO-K1 cells …; test: flow cytometry blocking assay: antibody titrated against recombinant hPD-1 (constant 15 micrograms/mL) binding to CHO-K1 cells expressing hPD-L2; signal falls with the antibody; column head on the sheet is EC50
Description: CHO-K1 cells over-expressing either hPDL2-GFP were detached, washed in phosphate buffered saline (PBS) and adjusted to a cell concentration of around 1 million cells in CB. Around 80,000 cells were then distributed into a round-bottom 96 well plate and the plate was centrifuged for 3 minutes at 400 g at 4° C. and supernatant discarded. A constant concentration of ligand recombinant hPD-1 ligand (Sino Biological 10377-H08H/lot LC13JA2207) of 15 micrograms/mL was incubated with respective concentration of antibody, added to the cells and incubated for 30 min at 6-8° C. Cells were washed 3 times in PBS and then incubated with a rabbit polyclonal anti-His (Abcam Ab1187/lot GR3369369-1) in CB and subsequently washed three times in PBS. Cells were then incubated with a labeled anti-rabbit secondary (AlexaFluor 647 Goat anti-Rabbit IgG (H+L) (Invitrogen A21244/lot 1910774) for 15 minutes at 4° C., washed two times in PBS, resuspended in CB and analyzed in the Sony ID7000 Spectral Cell analyzer (Sony).

[3] = target: T1, human PD-L2 on CHO-K1 cells …; test: binding to cellular PDL2 (FIG. 1A by the text; flow cytometry on CHO-K1 cells expressing hPD-L2)
Description: as §1

[4] = target: T2, recombinant mouse PD-L2 (Sino Biological, cat 50804-M08H-B) (mouse, UniProt Q9WUL5 20-219); test: ELISA on recombinant mPD-L2 according to the legend; the y axis on the sheet reads 'Mean fluorescent unit'
T2 construct: Bought protein; also called recombinant mPD-L2; recombinant mPDL2
T2 sequence (looked up): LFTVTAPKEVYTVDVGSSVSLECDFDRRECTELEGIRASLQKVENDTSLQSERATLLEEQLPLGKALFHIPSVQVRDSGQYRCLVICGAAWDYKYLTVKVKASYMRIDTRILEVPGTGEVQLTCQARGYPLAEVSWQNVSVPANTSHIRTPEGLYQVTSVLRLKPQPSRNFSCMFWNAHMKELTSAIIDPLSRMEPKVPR

[5] = target: T3, human PD-L2 on CHO-K1 cells of the Promega PD-1/PD-L2 blockade bioassay (human, UniProt Q9BQ51 20-273); test: cell-based or functional assay
T3 sequence (looked up): T1 sequence (looked up)

[6] = target: T4, recombinant human PD-L2 (human PD-L2 antigen) (human, UniProt Q9BQ51 20-219, limits assumed); test: SPR (Biacore 8K), single cycle kinetics, antibody in culture supernatant, human PD-L2 antigen
T4 construct: The Biacore analyte and the ELISA antigen are only called human PD-L2 antigen / recombinant hPD-L2; Whole entry named; also called hPD-L2; recombinant hPD-L2
T4 sequence (looked up): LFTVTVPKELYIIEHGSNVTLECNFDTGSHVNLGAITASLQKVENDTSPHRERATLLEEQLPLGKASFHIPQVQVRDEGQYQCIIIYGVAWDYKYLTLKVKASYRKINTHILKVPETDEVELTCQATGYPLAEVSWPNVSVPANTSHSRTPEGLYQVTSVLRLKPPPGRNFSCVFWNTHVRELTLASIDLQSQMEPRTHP
Excerpt: Table 2: Single cycle kinetic parameters of chimeric (VH0/VK0) and humanized variants (tested as cell culture supernatants) binding to human PD-L2 antigen as determined using the Biacore 8K. As used herein, the term “KD” is intended to refer to the dissociation equilibrium constant of a particular antibody-antigen interaction, ka is the binding rate constant and kd is the dissociation rate constant. The binding affinity of antibodies of the disclosed invention may be measured or determined by standard antibody-antigen assays. The relative KD was calculated by dividing the KD of the humanized variant by that of the VH0/VK0 assayed in the same experiment.

[7] = target: T5, mouse PD-L2 on CHO-K1 cells over-expressing mPD-L2 GFP (mouse, UniProt Q9WUL5 20-247); test: flow cytometry on CHO-K1 cells overexpressing mPD-L2, mean fluorescence
T5 construct: whole, on cells; also called cellular mPD-L2; not shown: GFP of the mPD-L2 GFP construct
T5 sequence (looked up): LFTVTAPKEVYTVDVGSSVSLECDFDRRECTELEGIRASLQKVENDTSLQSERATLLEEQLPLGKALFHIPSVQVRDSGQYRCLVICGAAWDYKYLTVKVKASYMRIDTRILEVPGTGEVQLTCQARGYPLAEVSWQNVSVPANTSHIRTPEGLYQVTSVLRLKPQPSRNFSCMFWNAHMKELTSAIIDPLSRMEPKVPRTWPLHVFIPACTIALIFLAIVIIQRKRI
Description: as §1

[8] = target: T3, human PD-L2 on CHO-K1 cells of the …; test: cell-based or functional assay; remark: listed apart in the source

B1: VH0/VK0-mIgG1 (parental murine monoclonal antibody VHP/VKP on mIgG1 backbone) (antibody, V domains shown)
VH: QVQLQQSGAELVRPGTSVKVSCKASGYAFSNYFIEWVKQRPGQGLEWIGLNIPGSGGSNYAEKFKGKATLTADKSSSTAYMQLSSLTSEDSAVYFCARRRLPPDWYFDVWGTGTTVTVSS
VL: DVVMTQTPLSLPVSLGDQASISCRSSQSLVHSDGNTYLHWYLQKPGQSPKLLIYKVSNRFSGVPDRFSGSGSGTDFTLKISRVEAEDLGVYFCSQSTHVPWTFGGGTKLEIK
notes: Murine IgG1 backbone; also called parental mouse antibody
**Q.** Which EC50 [1] does the source give for B1 here?
**A.** 538 pM

**Q.** And the EC50 [2]?
**A.** 600 pM

**Q.** What about the EC50 [3] of the same binder?
**A.** 219 pM

**Q.** And the “EC50 (read off the curve)” value [4]?
**A.** ~500 pM

**Q.** What about the “EC50 (PD-1/PD-L2 blockade reporter assay, luminescence)” value [5] of the same binder?
**A.** 1110 pM

B2: VH8/VK2 (antibody, V domains shown)
VH: QVQLVQSGAEVKKPGSSVKVSCKASGYAFSNYFIEWVKQPPGKGLEWIGLNIPGSGGSNYAEKFKGRATITADKSTSTAYMELSSLRSEDTAVYYCARRRLPPDWYFDVWGQGTTVTVSS
VL: B1 VL with T7S, S14T, D17Q, Q18P, L42Q, S48P, L88V, F92Y, L109V
notes: hIgG1 backbone, CHO expressed
**Q.** Which Kd [6] does the source give for B2 here?
**A.** 52.8 pM

**Q.** What about the “Relative KD (KD of variant / KD of VH0/VK0)” value [6] of the same binder?
**A.** 1.47

**Q.** What about the koff [6] of the same binder?
**A.** 0.000121 s⁻¹

**Q.** And the EC50 [7]?
**A.** 230 pM

**Q.** What about the “EC50 (PD-1/PD-L2 blockade reporter assay, luminescence)” value [8] of the same binder?
**A.** 1290 pM
